B1: recombinant human TL1A protein (ligand, UniProt O95150 72-251, looked up)
chain: LKGQEFAPSHQQVYAPLRADGDKPRAHLTVVRQTPTQHFKNQFPALHWEHELGLAFTKNRMNYTNKFLLIPESGDYFIYSQVTFRGMTSECSEIRQAGRPNKPDSITVVITKVTDSYPEPTQLLMGTKSVCEVGSNWFQPIYLGAMFSLQEGDKLMVNVSDISLVDYTKEDKTFFGAFLL
notes: also called tumor necrosis factor-like cytokine 1A; TNFSF15

The target in assay [1] is T1, DR3 receptor on human TF-1 cells (human, UniProt Q93038 25-417).
T1 construct: whole, on cells; also called death receptor 3; TNFRSF25
T1 sequence (looked up): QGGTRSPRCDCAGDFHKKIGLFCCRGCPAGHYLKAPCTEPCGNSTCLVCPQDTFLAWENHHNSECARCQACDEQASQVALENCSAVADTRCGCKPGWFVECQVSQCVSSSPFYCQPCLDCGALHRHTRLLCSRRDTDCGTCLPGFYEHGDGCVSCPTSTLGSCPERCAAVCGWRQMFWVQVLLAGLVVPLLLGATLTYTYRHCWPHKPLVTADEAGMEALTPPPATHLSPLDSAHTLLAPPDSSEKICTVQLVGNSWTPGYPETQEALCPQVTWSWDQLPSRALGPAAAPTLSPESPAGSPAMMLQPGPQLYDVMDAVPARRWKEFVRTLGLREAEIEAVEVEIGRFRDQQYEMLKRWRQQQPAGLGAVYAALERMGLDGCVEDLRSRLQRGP
Nature of the assay: TF-1 cell caspase activation assay.

Assay [2] deals with T2, recombinant cynomolgus monkey TL1A protein (cynomolgus monkey, UniProt G7PRK8 72-251).
T2 construct: also called cynomolgus TL1A
T2 sequence: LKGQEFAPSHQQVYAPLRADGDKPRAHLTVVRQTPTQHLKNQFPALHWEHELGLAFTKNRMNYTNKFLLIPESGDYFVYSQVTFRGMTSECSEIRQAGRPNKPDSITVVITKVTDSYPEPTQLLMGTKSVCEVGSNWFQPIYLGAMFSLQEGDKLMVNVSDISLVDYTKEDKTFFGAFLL
Nature of the assay: surface plasmon resonance (SPR), recombinant TL1A protein. For orientation: SPR reads the build-up and loss of mass on a sensor chip optically.

Assay [3] concerns the target B1. The description is as above.
Assay [4] concerns the target T2, recombinant cynomolgus monkey TL1A …. As to the kind of experiment: ELISA, binding to recombinant TL1A protein. (ELISA stands for enzyme-linked immunosorbent assay.)
For assay [5], the target named is T3, membrane-bound human TL1A on TNFSF15/HEK293 cells (human, UniProt O95150 1-251).
T3 construct: whole, on cells; also called membrane-associated TL1A
T3 sequence (looked up): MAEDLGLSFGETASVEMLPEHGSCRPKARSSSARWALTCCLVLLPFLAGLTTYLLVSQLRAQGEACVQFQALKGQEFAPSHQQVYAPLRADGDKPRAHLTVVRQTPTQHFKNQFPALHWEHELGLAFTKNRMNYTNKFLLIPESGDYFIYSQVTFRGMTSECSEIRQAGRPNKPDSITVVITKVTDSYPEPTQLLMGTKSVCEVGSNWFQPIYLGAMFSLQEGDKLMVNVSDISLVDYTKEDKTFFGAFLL
Nature of the assay: binding to TNFSF15/HEK293 cells that carry human TL1A, dose-dependent.

Assay [6] addresses T4, recombinant rat TL1A protein (rat, UniProt Q8K3Y7 76-252, limits assumed).
T4 sequence (looked up): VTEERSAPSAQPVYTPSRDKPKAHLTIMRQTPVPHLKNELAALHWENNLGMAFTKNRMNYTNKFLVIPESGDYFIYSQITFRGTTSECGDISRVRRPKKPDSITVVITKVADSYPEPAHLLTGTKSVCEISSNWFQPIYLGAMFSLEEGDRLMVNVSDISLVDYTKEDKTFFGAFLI
Nature of the assay: ELISA on recombinant TL1A protein.

The target in assay [7] is T5, recombinant mouse TL1A protein (mouse, UniProt Q5UBV8 76-252, limits assumed).
T5 construct: also called murine TL1A
T5 sequence (looked up): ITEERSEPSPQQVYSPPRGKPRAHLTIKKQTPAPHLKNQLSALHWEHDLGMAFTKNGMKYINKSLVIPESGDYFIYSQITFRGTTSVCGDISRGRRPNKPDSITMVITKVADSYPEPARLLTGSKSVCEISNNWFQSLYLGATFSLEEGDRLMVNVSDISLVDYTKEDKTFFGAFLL
As to the kind of experiment: ELISA on recombinant TL1A protein.

In another assay the target is TNFSF14 (LIGHT) (UniProt O43557 74-240, limits assumed). Nature of the assay: ELISA.
Sequence of TNFSF14 (LIGHT) (O43557 74-240 limits assumed): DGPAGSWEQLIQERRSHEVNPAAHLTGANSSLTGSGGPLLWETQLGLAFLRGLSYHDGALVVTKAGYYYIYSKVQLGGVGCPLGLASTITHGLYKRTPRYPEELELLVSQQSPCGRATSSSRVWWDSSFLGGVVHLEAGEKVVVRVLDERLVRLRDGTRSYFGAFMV
The target of a further assay is T6, TNFSF6 (FasL) (UniProt P48023 134-281, limits assumed).
T6 sequence (looked up): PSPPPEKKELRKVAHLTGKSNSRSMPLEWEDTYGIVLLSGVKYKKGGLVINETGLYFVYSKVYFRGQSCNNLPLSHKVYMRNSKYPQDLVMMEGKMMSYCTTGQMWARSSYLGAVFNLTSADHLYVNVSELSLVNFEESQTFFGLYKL
Nature of the assay: ELISA.

Another assay concerns the target TNFSF10 (TRAIL) (UniProt P50591 114-281, limits assumed). Nature of the assay: ELISA.
Assay [8] deals with T7, cynomolgus monkey TL1A produced by PBMCs in stimulated whole blood (cynomolgus monkey, UniProt G7PRK8 72-251).
T7 sequence: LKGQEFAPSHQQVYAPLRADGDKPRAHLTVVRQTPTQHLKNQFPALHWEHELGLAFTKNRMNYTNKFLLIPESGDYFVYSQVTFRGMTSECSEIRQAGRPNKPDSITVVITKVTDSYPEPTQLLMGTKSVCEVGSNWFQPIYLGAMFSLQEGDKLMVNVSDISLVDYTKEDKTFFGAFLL
Nature of the assay: cell-based or functional assay.

Assay [9] deals with T2, recombinant cynomolgus monkey TL1A …. As to the kind of experiment: cell-based or functional assay.
Assay [10] has as its target B1. As to the kind of experiment: cell-based or functional assay.

Where “and” joins values, the source holds several entries; their conditions need not be identical. Identical values can stand only once.

What is called Kd is the concentration at which binding is half-saturated. By IC50 is commonly meant the point on the concentration scale where inhibition reaches its midpoint. The EC50 is the concentration giving half of the maximal effect.

Sequence of TNFSF10 (TRAIL) (P50591 114-281 limits assumed): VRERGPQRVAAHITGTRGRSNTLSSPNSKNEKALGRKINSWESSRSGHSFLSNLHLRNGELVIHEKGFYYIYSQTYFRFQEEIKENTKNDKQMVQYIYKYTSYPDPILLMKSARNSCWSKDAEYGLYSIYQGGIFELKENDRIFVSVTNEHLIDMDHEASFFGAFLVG

Regarding B1, the binding result in [1] is reported as “binds”.

B2: anti-TL1A antibody A219 (antibody, V domains shown)
VH: QVQLVQSGAEVKKPGASVKVSCKASGFDIQDTYMHWVKQRPGQGLEWMGRIDPASGHTKYDPKFQVRVTITRDTSTSTVYLELSSLRSEDTAVYYCARSGGLPDVWGQGTTVTVSS
VL: EIVLTQSPGTLSLSPGERATLSCRASSSVSYMYWYQQKPGQAPRPLIYATSNLASGIPDRFSGSGSGTDFTLTISRLEPEDFAVYYCQQWEGNPRTFGGGTKLEIK
notes: Humanized monoclonal antibody; Molecular weight 143938 Daltons; The constant region is not tied to A219 in the readable text
B2: the Kd in [2] worked out at 0.04 nM; in assay [3], 0.06 nM. Besides, the half-inhibitory concentration (IC50) in assay [4] was 0.47 nM. In assay [5], this molecule displayed an EC50 of 17.4 nM. Further, the binding result (in assay [6]; in assay [7]; with TNFSF14 (LIGHT); in the assay with TNFSF6 (FasL); with TNFSF10 (TRAIL)) was “no binding” in each case. The “inhibition of the IFN-gamma response in monkey whole blood (mean IC50)” value in assay [8] is 1.54 nM and 289 ng/mL. The “inhibition of TL1A-induced caspase activation in TF-1 cells (IC50)” value in assay [9] was found to be 0.59 nM; in assay [10] it was 0.27 nM.
